Measured values from the supplement of paper PMC9170038.

Test system: MS2 coat protein
Assay: apparent KD of MS2 coat protein; designed switch direction (-1 OFF switch, 1 ON switch): -1; higher = weaker reporter binding
Method in brief: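 An oligonucleotide input, 200 uM small-molecule ligand, or no input was present during titration of SNAP-549-labelled MS2 coat protein, which was doubled from 0.7 or 1.5 nM to 3 µM. Designed RNA switches had been transcribed on Illumina chips by stalled E. coli RNA polymerase. Apparent KD per design is the median over clusters of curves fitted to normalised cluster fluorescence.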

[1] = Eterna round: R95, input ligand: microRNA oligo, concentration not stated
[2] = input ligand: microRNA oligo, concentration not stated
[3] = Eterna round: R95, input ligand: FMN 200 uM
[4] = Eterna round: R95, input ligand: none

Sequence	apparent KD of MS2 coat protein [1]	apparent KD of MS2 coat protein (input ligand: FMN 200 uM)	apparent KD of MS2 coat protein (input ligand: none)	apparent KD of MS2 coat protein [2]	apparent KD of MS2 coat protein [3]	apparent KD of MS2 coat protein [4]
CUCAUGUGAGGAUAUGUGAUCAACCUUCUAUAUAGAUGAUUACAGAAGGCACAUGAGGAUCACCCAUGUAGAUC [Ex4 - 3 - 23] (puzzle: Exclusion 4)	21.1 nM	–	–	–	–	–
CUCAUUUGUCAGGAUAUCGUGAGGCUAAUUAUACGAGAAGGGACGACAUGAGGAUCACCCAUGUGGUCUUUGAG [JR_Ex6_Sub082] (Eterna round: R97, puzzle: Exclusion 6)	–	161 nM	33.3 nM	–	–	–
CUCCUACAUGAGGAUCACCCAUGUCAGGAUAUCUCAGUGGCACCUAAAGGCGCCACCCAGAGAAGGGACGUGCA [Soistiis] (puzzle: Exclusion 1)	10.6 nM	–	–	–	–	–
CUCGCUGUAGGAUAUACAUAUGUCCUGUCAGCCGCGGCAGAACAUGAGGAUCACCCAUGUAGAAGGAUAGAGAG [Eternabot (Original) Solution 34] (Eterna round: R97, puzzle: Exclusion 2)	–	48.3 nM	26.7 nM	–	–	–
CUCGGACAUGAGGAUCACCCAUGUGAGGAUAUGGUGCUAUCGUCAUUAGACGAUUGCGUUAGAAGGCAUAUUUU [LRO-Excl1-30] (puzzle: Exclusion 1)	24.4 nM	–	–	–	–	–
CUCGUGCAGCAAAGCUGUACGAGUACAUGAGGAUCACCCAUGUAGGAUAUGGUACGCAAAGCGUGCUAGAAGGAUAUGUGAAAG [Mat - Exclusion NG 3 - Mod of JL - D89] (Eterna round: R96, puzzle: Exclusion NG 3)	–	44.2 nM	49.9 nM	31.4 nM	–	–
CUCGUGCAGCUUUGCUGUACGAGUACAUGAGGAUCACCCAUGUAGGAUAUGGUACGCUUUGCGUGCUAGAAGGAUAUGUGUAGG [JL EXNG3 1.38] (Eterna round: R96, puzzle: Exclusion NG 3)	–	44.1 nM	31.3 nM	18.4 nM	–	–
CUCUCACAUGAGGAUCACCCAUGUUAGGAUAUUCCGUAGCGACUUACAAGAGGAGCAGGAAGAAGGAGCCUGGC [Eternabot (L1) Solution 40] (Eterna round: R97, puzzle: Exclusion 1)	–	343 nM	435 nM	–	–	–
CUCUUGUCAGGAUAUUAUGGACGAUAGCAGGGCUACGUCAGUGAGAAGGGACAUGAGGAUCACCCAUGUAAAAU [Onatbezaes] (puzzle: Exclusion 4)	77.1 nM	–	–	–	–	–
CUCUUGUGAGGAUAUCAGGUGUGCUAGCGUACUGGUACAUCUGAGAAGGCACAUGAGGAUCACCCAUGUUUCUA [Mat - Exclusion 4 - Mod of JL - D40] (puzzle: Exclusion 4)	93.8 nM	–	–	–	–	–
CUGAGCAGACGGAGAUCCAACAUGAGGAUCACCCAUGUCUCAAAAGCUUCUUGCUCGUCUUAUCCUCCUCUGUUCUC [Maeronqu] (puzzle: Sensor v3, turn-off variant 1)	215 nM	–	–	–	36.8 nM	33.1 nM
CUGAGGUAGCGGUCCUAUGACAUGAGGAUCACCCAUGUACCUUGCUUUGAGCAUUUUGCUCGUCUUAUGAUUCUCGG [Mat - Sensor v3 - turn-off var 1 - JL Mod - D39] (puzzle: Sensor v3, turn-off variant 1)	474 nM	–	–	–	371 nM	427 nM
CUGAGGUAGCGGUCCUAUGACAUGAGGAUCACCCAUGUGCCUCGCUACAAGCUUUUUGCUCGUUUUAUGAUUCUCGG [JL Atriat mod 11] (puzzle: Sensor v3, turn-off variant 1)	90.1 nM	–	–	–	71.2 nM	95.3 nM
CUGCUCCGUGUAGGAUAUCCCGGCAACCAACCGGGAGAAGGACAUGAGGAUCACCCAUGUAUGUUAUUAUCACGUGAAGCGUCC [Design 28] (Eterna round: R96, puzzle: Exclusion NG 1)	–	29 nM	19.9 nM	12.5 nM	–	–
CUGCUCCGUGUAGGAUAUGCAUAUUCCCAUUAUGCAGAAGGACAUGAGGAUCACCCAUGUAUGUUAUUAUCAUGUGUUGCAUGC [Design 10] (Eterna round: R96, puzzle: Exclusion NG 1)	–	146 nM	34.3 nM	35.2 nM	–	–
CUGCUCCGUGUAGGAUAUGCCCGCACCACCCGGGCAGAAGGACAUGAGGAUCACCCAUGUAUGUUAUUAUCACGUGUGGCGCGC [Design 39] (Eterna round: R96, puzzle: Exclusion NG 1)	–	23.7 nM	16.4 nM	11.7 nM	–	–
CUGCUCCGUGUAGGAUAUGCGCGCAACCAACGCGCAGAAGGACAUGAGGAUCACCCAUGUAUGUUAUUAUCACGUGAGGCGCAG [Design 33] (Eterna round: R96, puzzle: Exclusion NG 1)	–	28.9 nM	16.6 nM	13.2 nM	–	–
CUGCUCCGUGUAGGAUAUGCGCGCACCACCCGCGCAGAAGGACAUGAGGAUCACCCAUGUAUGUUAUUAUCACGUGAGGCGCGC [Design 37] (Eterna round: R96, puzzle: Exclusion NG 1)	–	16.8 nM	18 nM	10.9 nM	–	–

Sequence	apparent KD of MS2 coat protein [1]	apparent KD of MS2 coat protein (input ligand: FMN 200 uM)	apparent KD of MS2 coat protein (input ligand: none)	apparent KD of MS2 coat protein [2]	apparent KD of MS2 coat protein [3]	apparent KD of MS2 coat protein [4]
CUGCUGGAGCUUUGCUUUAGUCGUACAUGAGGAUCACCCAUGUAGGAUAUGGUAGGCUUUGCUUACUAGAAGGAUAGAGUGAUC [salish99_ExNG3_r04_605] (Eterna round: R96, puzzle: Exclusion NG 3)	–	289 nM	94.2 nM	62.8 nM	–	–
CUGCUGGAGCUUUGCUUUGGUCGUACAUGAGGAUCACCCAUGUAGGAUAUGGUAGGAUUUGCUUGCUAGAAGGAUAGAGUGGUC [salish99_ExNG3_r04_610] (Eterna round: R96, puzzle: Exclusion NG 3)	–	92.7 nM	54.5 nM	36.1 nM	–	–
CUGGAGUCAGGAUAUGACGCAGUCCGCCCAAAUAGCGGAAAUCAGAAGGGACUUGAGGAUCACCCAAGUAAAAG [Qubilexe] (Eterna round: R97, puzzle: Exclusion 4)	–	29.7 nM	21.8 nM	–	–	–
CUGGUCCGAGGAUAUAUUAAGUGAUACAUGAGGAUCACCCAUGUAAUUUGAUGGAUGUAAAUAGAAGGCGGACUAG [JL-ex5-3.10] (puzzle: Exclusion 5)	63.5 nM	–	–	–	36.8 nM	45 nM
CUGGUCCGAGGAUAUAUUAAGUGAUACAUGAGGAUCACCCAUGUUAUUUAAUGGAUGUUAAUAGAAGGCGGACUAG [JL-ex5-3.19] (puzzle: Exclusion 5)	43.9 nM	–	–	–	33.9 nM	34.8 nM
CUGGUCCGAGGAUAUAUUAUGUGAUACAUGAGGAUCACCCAUGUAAUAUGAUGGAAGUAAAUAGAAGGCGGACUAG [Mat - Exclusion 5 - JL mod - D46] (puzzle: Exclusion 5)	55.8 nM	–	–	–	42.5 nM	58.1 nM
CUGGUCCGAGGAUAUAUUAUGUGAUACAUGAGGAUCACCCAUGUUAUAUGAUGGAUGUUAAUAGAAGGCGGACUAG [JL-ex5-3.20] (puzzle: Exclusion 5)	109 nM	–	–	–	109 nM	184 nM
CUGUACUGAGGAUAUACAUGAGGAUCACCCAUGUGUCCUGGCUAGGAAACUAGCAAAGGUAGAAGGCAGUACAG [Mat - Exclusion 3 - Eli Mod - D54] (Eterna round: R97, puzzle: Exclusion 3)	–	150 nM	18.8 nM	–	–	–
CUGUACUGAGGAUAUACAUGAGGAUCACCCAUGUUCCAAGGCUAGGAAACUAGCAAAAGUAGAAGGCAGUACAG [Mat - Exclusion 3 - Eli Mod - D55] (Eterna round: R97, puzzle: Exclusion 3)	–	556 nM	32.7 nM	–	–	–
CUGUUUUCCGCAGGAUAUGCUCCUCCAUUAUUUGCAGAAGGGCGUUGAACAUGAGGAUCACCCAUGUAUGGAAAUGACUAUUGC [JR_ExcNG1_Sub069] (Eterna round: R96, puzzle: Exclusion NG 1)	–	19.5 nM	16.5 nM	11.2 nM	–	–
CUUAGUAUCUAGGAUAUCUAGUACAUAGUAUCUAGAGAAGGAGAUACAUGAGGAUCACCCAUGUUCUGUGAUCU [Exclusion 6 - 2:d] (puzzle: Exclusion 6)	217 nM	–	–	–	–	–
CUUAGUAUCUAGGAUAUCUAGUACAUAGUAUCUAGAGAAGGAGAUACAUGAGGAUCACCCAUGUUCUGUGUUCU [Exclusion 6 - 1:b] (Eterna round: R96, puzzle: Exclusion 6)	–	–	24.8 nM	18.2 nM	–	–
CUUAGUAUCUAGGAUAUCUAGUACAUAGUAUCUAGAGAAGGAGAUACAUGAGGAUCACCCAUGUUCUGUGUUCU [Exclusion 6 - 1:b] (puzzle: Exclusion 6)	22.2 nM	–	–	–	–	–
CUUCGACAUGAGGAUCACCCAUGUCAGGAUAUUGUUUAUCUGGUUUUUUACAGAUAUACAAGAAGGGAUGUGUU [LRO-Excl1-02] (puzzle: Exclusion 1)	25.9 nM	–	–	–	–	–
CUUCGUAUAGAGGAUAUAGGAUACUACGGUGUCCUAGAAGGCUGUACAUGAGGAUCACCCAUGUACUUCAGAUC [Exclusion 6 - B - 14:a] (puzzle: Exclusion 6)	11.5 nM	–	–	–	–	–
CUUCGUAUAGAGGAUAUAGGUUACUUCGGUAUCCUAGAAGGCUGUACAUGAGGAUCACCCAUGUACUUCAGAUC [Exclusion 6 - B - 13:a] (puzzle: Exclusion 6)	12.2 nM	–	–	–	–	–
CUUGUUUAUGUAGGAUAUGCCUGGCGUGCCUUUGCAGAAGGACAUGAGGAUCACCCAUGUAACAUGAGGAUCACCCAUGUCGCA [salish99_ExNG1_r04_103] (Eterna round: R96, puzzle: Exclusion NG 1)	–	1190 nM	854 nM	555 nM	–	–
